According to patent US20120034604A1:

Molecular target: polyclonal anti-QRFSR antibody 3RBF-SAB
Experiment: competitive ELISA: free Opiorphin against coated Y-(PE)12-QRFSR for antibody 3RBF-SAB

B1: Opiorphin QRFSR-peptide (peptide)
peptide: QRFSR
IC50: 0.03 µg/mL
